Target: the molecule itself
Assay: NMR (preliminary experiments); highly purified P protein at 25°C

B1: Thermotoga maritima RNase P protein (natural protein)
chain: TESFTRRERLRLRRDFLLIFKEGKSLQNEYFVVLFRKNGLDYSRLGIVVKRKFGKATRRNKLKRWVREIFRRNKGVIPKGFDIVVIPRKKLSEEFERVDFWTVREKLLNLLKRIEG
modifications: 15N, 13C-labeled
notes: RNase P protein component (rnpA gene) of Thermotoga maritima; numbering corresponds to UniProtKB Q9X1H4; Exists as monomer and dimer in equilibrium in solution; the preparation follows Zeng et al., 2018; also called T. maritima RNase P protein; source: E. coli BL21 Gold, M9 minimal media, purified (thrombin-treated lysate, denaturation-renaturation, 15S cation exchange); not shown: GST, …
stoichiometry N: 2
